# Test results published in publication PMC11021369, “Resolving the polycistronic aftermath: Essential role of topoisomerase IA in preventing R-loops in Leishmania” (The Journal of Biological Chemistry, 2024).
# B1: 32-bp dsDNA, FAM (dsDNA)
# DNA 1: TATTGGGCGCTCTTCCGCTTCCTCGCTCACTG
# DNA 2: CAGTGAGCGAGGAAGCGGAAGAGCGCCCAATA
# B2: DNA:RNA duplex, FAM-RNA (DNA:RNA)
# RNA: UAUUGGGCGCUCUUCCGCUUCCUCGCUCACUG
# DNA: B1 DNA 2
# Legend:
# [1] = biological target: T1, Human TOPIB (Homo sapiens, UniProt P11387); assay: plasmid DNA relaxation assay with commercial human TOPIB, […] drug (Fig. S3C); type: biochemical
# T1 construct: gene TOP1
# T1 sequence (P11387 2-765): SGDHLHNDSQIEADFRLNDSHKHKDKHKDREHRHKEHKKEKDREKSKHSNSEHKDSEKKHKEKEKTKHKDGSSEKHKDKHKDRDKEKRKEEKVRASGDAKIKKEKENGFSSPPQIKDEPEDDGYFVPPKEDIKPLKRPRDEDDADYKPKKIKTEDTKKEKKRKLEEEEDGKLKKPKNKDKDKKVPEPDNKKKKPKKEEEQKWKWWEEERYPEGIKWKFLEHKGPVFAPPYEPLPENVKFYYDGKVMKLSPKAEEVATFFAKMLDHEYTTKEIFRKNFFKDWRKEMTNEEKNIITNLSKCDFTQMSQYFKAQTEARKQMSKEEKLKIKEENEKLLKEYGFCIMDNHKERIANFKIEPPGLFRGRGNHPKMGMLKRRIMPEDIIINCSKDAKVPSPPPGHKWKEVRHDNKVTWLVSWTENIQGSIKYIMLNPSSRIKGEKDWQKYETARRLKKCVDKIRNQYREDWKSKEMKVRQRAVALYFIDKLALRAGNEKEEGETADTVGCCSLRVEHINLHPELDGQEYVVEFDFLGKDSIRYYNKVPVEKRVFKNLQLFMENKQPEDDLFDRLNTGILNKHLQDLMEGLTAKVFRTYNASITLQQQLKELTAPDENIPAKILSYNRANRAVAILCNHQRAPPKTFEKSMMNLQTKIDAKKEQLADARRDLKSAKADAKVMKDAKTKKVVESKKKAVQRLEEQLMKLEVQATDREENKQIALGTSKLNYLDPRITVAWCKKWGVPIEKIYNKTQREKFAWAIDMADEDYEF
# [2] = biological target: T2, LdTOPIA (Leishmania donovani DNA topoisomerase IA) (Leishmania donovani, UniProt A0A3S7WW83); assay: plasmid DNA relaxation assay with purified LdTOPIA ([…] drug), agarose gel; type: biochemical
# T2 construct: gene LdCL_210006600; full length, 7xHis-LdTOPIA-6xHis (809 aa), expressed in L. tarentolae LtT7TR
# T2 sequence (A0A3S7WW83 1-809): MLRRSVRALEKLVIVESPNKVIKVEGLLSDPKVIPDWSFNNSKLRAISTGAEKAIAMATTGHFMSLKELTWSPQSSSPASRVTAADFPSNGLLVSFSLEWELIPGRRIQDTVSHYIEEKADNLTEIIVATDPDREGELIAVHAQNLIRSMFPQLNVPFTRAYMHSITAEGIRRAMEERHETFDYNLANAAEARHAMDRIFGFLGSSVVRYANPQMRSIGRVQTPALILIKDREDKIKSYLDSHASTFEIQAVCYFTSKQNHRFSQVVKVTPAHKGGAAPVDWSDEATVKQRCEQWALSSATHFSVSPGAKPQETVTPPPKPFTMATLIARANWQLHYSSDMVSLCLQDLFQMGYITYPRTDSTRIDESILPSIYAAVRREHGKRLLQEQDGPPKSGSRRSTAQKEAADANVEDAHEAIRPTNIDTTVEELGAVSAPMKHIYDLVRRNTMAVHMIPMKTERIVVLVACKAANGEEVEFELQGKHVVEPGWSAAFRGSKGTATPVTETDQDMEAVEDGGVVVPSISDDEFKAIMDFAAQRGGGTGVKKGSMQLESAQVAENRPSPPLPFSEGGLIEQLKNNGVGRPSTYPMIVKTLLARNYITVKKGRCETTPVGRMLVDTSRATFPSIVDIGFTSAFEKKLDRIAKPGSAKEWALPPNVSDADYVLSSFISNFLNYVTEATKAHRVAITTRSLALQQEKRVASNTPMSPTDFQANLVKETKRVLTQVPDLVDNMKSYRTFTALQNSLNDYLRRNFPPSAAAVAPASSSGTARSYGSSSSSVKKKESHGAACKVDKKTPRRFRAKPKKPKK
# [3] = biological target: T3, LdTOPIA (DNA topoisomerase IA) (Leishmania donovani DD8, UniProt A0A3S7WW83 1-809); assay: fluorescence anisotropy; 30 nM DNA, 0.5 mM EDTA; 50 mM Tris pH 7.5, 100 mM NaCl, 0.5 mM DTT, 0.5 mM EDTA, 5% glycerol, 15 min, 25 °C (EMSA gel at 4 °C); conditions: protein: recombinant, tags: N-term 7xHis, C-term 6xHis
# T3 sequence: T2 sequence (A0A3S7WW83 1-809)
# [4] = biological target: T3, LdTOPIA (DNA topoisomerase IA); assay: fluorescence anisotropy; 50 mM Tris pH 7.5, 100 mM NaCl, 0.5 mM DTT, 0.5 mM EDTA, 5% glycerol, 15 min, 25 °C (EMSA gel at 4 °C); conditions: protein: recombinant; tags: N-term 7xHis, C-term 6xHis; label: 5' FAM on RNA strand; blunt
# [5] = biological target: T4, RNase H I, catalytically inactive D210N (Homo sapiens, UniProt O60930 1-286, D210N); assay: fluorescence anisotropy; 30 nM duplex, 2-200 nM protein; 50 mM Tris pH 7.5, 100 mM NaCl, 0.5 mM DTT, 0.5 mM EDTA, 5% glycerol, 15 min, 25 °C (EMSA gel at 4 °C); conditions: protein: recombinant; tags: His (pET15b; Ni-NTA purified); label: 5' FAM on RNA strand; blunt
# T4 sequence: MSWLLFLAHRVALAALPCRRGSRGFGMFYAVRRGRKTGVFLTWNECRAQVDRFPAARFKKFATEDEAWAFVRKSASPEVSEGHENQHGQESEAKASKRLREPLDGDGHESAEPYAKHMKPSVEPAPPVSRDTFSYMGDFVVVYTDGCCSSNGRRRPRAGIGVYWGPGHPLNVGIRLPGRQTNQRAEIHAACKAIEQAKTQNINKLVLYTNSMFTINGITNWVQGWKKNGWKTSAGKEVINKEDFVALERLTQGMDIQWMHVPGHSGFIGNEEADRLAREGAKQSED
molecule,measurement,setting,value
"CC[C@@]1(O)C(=O)OCc2c1cc1n(c2=O)Cc2cc3ccccc3nc2-1 [CPT, Camptothecin]","plasmid DNA relaxation assay with commercial human TOPIB, 10 μM drug (Fig. S3C)",[1],Etoposide and CPT could effectively inhibit plasmid relaxation of the TOPIB and TOPII respectively (Fig. S3C)
CN(C)CCCN1c2ccccc2CCc2ccccc21 [imipramine],"plasmid DNA relaxation assay with purified LdTOPIA (10, 20 and 40 μM drug), agar",[2],Both imipramine and norclomipramine (NCL) could inhibit the DNA relaxation by LdTOPIA
"TATTGGGCGCTCTTCCGCTTCCTCGCTCACTG (ssDNA) [32-nt ssDNA, FAM]",Kd,[3]; label: 5' FAM,3.16 ± 0.12 nM
B1,Kd,"[3]; label: 5' FAM on strand 1, blunt",8.1 ± 0.23 nM
B2,binding result,[4],no binding
same,binding result,[5],binds
